Results published in US20240165214A1, “COMPOSITIONS AND METHODS FOR STABILIZATION OF ALLOSTERIC PROTEINS” (priority 2021, published 2024).

Experiments:
[1] = biological target: FimH^wt (FimH adhesin of E. coli K12) (Escherichia coli K12) (UniProt P08191); test: ELISA, mAb824 on FimH^wt fimbriae, with 1% αmm
[2] = biological target: FimH^FocH (Escherichia coli K12; Escherichia coli) (UniProt P08191); test: ELISA, mAb824 on FimH^FocH fimbriae, without αmm
[3] = biological target: FimH^FocH (Escherichia coli K12; Escherichia coli) (UniProt P08191); test: cell-based or functional assay
[4] = biological target: FimH^wt (FimH adhesin of E. coli K12) (Escherichia coli K12) (UniProt P08191); test: cell-based or functional assay
[5] = biological target: FimH^wt (FimH adhesin of E. coli K12) (Escherichia coli K12) (UniProt P08191); test: ELISA, mAb824 on FimH^wt fimbriae, without αmm
[6] = biological target: FimH^FocH (Escherichia coli K12; Escherichia coli) (UniProt P08191); test: ELISA, mAb824 on FimH^FocH fimbriae, with 1% αmm
fimbrial FimH = test: mAb21 ELISA on fimbriae after αmm / Fab824 pre-treatment; format: binding, Escherichia coli; conditions: FimH^wt pre-treated with PBS only
Source text: Bound antibodies were detected with a 1:5,000 diluted HRP-conjugated goat anti-mouse Fc antibody (Sigma-Aldrich). […] Binding of the latter antibody was detected using 1:5,000 diluted HRP-conjugated streptavidin (Invitrogen).

yeast mannan = test: FimH-dependent bacterial adhesion to yeast mannan (Example 7); format: cell-based; conditions: 1% mannose
Experimental: FimH-dependent bacterial adhesion was analyzed as described previously. Briefly, Immulon 4HBX microtiter plates (Thermo Electron Corp.) were coated with 20 μg/mL of yeast mannan and plates were quenched with 0.2% BSA in PBS. Bacterial suspensions in PBS (OD540=2) were added to each well in a volume of 100 μl and incubated for 1 h at 37° C. After extensive washing, bound bacteria were stained with 0.1% (vol/vol) crystal violet for 20 min at room temperature and were washed several times with water. Then 100 μl of 50% (vol/vol) ethanol was added to each well, and the absorbance at a wavelength of 600 nm was measured. For inhibition, bacterial binding was tested in the presence of 1% mannose.

[7] = biological target: horseradish peroxidase (HRP) (horseradish) (UniProt P00433); test: time course of soluble HRP on fimbriae pre-treated with mAb824
asialofetuin = biological target: T1, asialofetuin (UniProt P12763 19-359, oligosaccharides with terminal galactose (beta1-3)); test: adhesion of bacteria expressing the FmlH variant to surface-coated asialofetuin, crystal violet, absorbance 600 nm
T1 construct: also called asialated fetuin
T1 sequence (looked up): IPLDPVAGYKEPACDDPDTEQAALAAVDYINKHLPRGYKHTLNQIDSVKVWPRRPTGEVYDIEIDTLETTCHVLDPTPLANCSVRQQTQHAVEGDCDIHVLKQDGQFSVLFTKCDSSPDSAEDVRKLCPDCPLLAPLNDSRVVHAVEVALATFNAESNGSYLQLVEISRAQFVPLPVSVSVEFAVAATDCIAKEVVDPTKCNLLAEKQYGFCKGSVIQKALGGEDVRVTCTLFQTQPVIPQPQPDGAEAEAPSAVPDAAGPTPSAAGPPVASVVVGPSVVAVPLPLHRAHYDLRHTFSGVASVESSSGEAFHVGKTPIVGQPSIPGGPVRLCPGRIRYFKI
Experimental: Briefly, Immulon 4HBX microtiter plates (Thermo Electron Corp.) were coated with 20 μg/mL of asialofetuin (Sigma-Aldrich) and plates were quenched with 0.2% BSA in PBS. Bacterial suspensions in PBS (OD540=2) were added to each well in a volume of 100 μl and plates were spun for 2 min at 750×g. After extensive washing, bound bacteria were stained with 0.1% (vol/vol) crystal violet for 20 min at room temperature and were washed several times with water. Then 100 μl of 50% (vol/vol) ethanol was added to each well, and the absorbance at a wavelength of 600 nm was measured. For inhibition, bacterial binding was tested in the presence of 1% galactose (Sigma).
Briefly, Immulon 4HBX microtiter plates (ThermoFisher Scientific) were coated with 20 μg/mL of asialofetuin (Sigma-Aldrich) and plates were quenched with 0.2% BSA in PBS. Bacterial suspensions in PBS (OD540=2) were added to each well in a volume of 100 μl and plates were spun for 2 min at 750×g. After extensive washing, bound bacteria were stained with 0.1% (vol/vol) crystal violet for 20 min at room temperature and were washed several times with water. Then 100 μl of 50% (vol/vol) ethanol was added to each well, and the absorbance at a wavelength of 600 nm was measured. For inhibition, bacterial binding was tested in the presence of 1% galactose (Sigma).

Sequence of horseradish peroxidase (HRP) (horseradish) (P00433 31-338): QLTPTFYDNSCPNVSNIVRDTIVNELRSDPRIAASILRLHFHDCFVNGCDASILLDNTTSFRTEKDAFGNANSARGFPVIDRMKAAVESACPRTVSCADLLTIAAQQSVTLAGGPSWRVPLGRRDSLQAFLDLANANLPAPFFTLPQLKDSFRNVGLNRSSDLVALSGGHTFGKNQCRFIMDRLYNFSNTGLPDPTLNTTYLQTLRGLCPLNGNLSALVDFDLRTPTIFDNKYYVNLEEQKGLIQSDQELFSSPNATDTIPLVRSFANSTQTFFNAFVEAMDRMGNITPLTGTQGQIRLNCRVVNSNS

With mAb824 (antibody) the EC50 (read off the curve) [1] was 20 pM, the EC50 (read off the curve) [2] was 20 pM and the RBC agglutination: time (in min) upon which noticeable aggregation of RBC was observed [3] was greater than 60 min. It also gave an RBC agglutination: time (in min) upon which noticeable aggregation of RBC was observed [4] greater than 60 min, an EC50 (read off the curve) [5] of 20 pM and an EC50 (read off the curve) [6] of 20 pM.

With α-methyl-D-mannopyranoside [αmm] the “αmm concentration at plateau of mAb21 binding” value (fimbrial FimH) was 0.1-1.0 % αmm and the “inhibition of bacterial adhesion to yeast mannan-coated surface” value (yeast mannan) was greater than 95%.

FimH^FocH (from UniProt P08191 22-300) was tested, and the fold decrease in the rate of binding with mAb824 against untreated [7] was greater than 10 fold.

B1: FmIH^wt (full-length wild-type FmlH adhesin) (other, Escherichia coli CFT073)
chain: FSCNVDGGSSIGAGTTSVYVNLDPVIQPGQNLVVDLSQHISCWNDYGGWYDTDHINLVQGSAFAGSLQSYKGSLYWNNVTYPFPLTTNTNVLDIGDKTPMPLPLKLYITPVGAAGGVVIKAGEVIARIHMYKIATLGSGNPRNFTWNIISNNSVVMPTGGCTVDSRNVTVDLPDFPGSAEIPLGVYCSSEQKLSFYLSGATTDSSRQVFANTAPDATKASGVGVTLMRNGKILATGENVSLGTVNKSKVPLGLSATYGQTGNKVSAGTVQSVIGVTFIYE
notes: domain: pilin domain; Expressed on bacteria in the type 1 fimbrial background
B1: no binding (asialofetuin).
